T1: GlyRS in HEK293 cells (endogenous) (human, UniProt P41250 55-739, limits assumed)
T1 sequence: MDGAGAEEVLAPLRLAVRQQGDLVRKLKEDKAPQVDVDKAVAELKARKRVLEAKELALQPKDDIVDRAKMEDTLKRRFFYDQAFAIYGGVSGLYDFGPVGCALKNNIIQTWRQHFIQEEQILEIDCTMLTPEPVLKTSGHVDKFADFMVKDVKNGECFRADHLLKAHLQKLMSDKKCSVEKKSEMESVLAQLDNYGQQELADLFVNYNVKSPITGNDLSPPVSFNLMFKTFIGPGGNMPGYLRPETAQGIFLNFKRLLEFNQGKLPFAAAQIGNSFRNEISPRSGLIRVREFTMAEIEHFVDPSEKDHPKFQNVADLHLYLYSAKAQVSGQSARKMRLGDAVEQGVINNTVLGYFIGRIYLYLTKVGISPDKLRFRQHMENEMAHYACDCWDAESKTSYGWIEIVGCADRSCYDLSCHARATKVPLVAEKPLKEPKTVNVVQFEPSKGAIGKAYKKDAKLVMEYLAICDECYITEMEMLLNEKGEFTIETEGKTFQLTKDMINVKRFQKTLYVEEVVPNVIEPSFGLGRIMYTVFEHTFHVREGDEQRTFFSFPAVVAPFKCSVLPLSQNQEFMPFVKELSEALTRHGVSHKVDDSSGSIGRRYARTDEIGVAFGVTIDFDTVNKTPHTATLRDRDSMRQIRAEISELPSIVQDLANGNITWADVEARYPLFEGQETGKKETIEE

T2: E1 for neddylation, APPBP1/UBA3 heterodimer (UniProt Q13564 1-534; Q8TBC4 22-463)
T2 construct: GST-tagged or untagged preparations are mentioned; also called GST-APPBP1/UBA3; NAE; not shown: GST tag on APPBP1 (GST-APPBP1/UBA3)
T2 sequence (looked up) 1: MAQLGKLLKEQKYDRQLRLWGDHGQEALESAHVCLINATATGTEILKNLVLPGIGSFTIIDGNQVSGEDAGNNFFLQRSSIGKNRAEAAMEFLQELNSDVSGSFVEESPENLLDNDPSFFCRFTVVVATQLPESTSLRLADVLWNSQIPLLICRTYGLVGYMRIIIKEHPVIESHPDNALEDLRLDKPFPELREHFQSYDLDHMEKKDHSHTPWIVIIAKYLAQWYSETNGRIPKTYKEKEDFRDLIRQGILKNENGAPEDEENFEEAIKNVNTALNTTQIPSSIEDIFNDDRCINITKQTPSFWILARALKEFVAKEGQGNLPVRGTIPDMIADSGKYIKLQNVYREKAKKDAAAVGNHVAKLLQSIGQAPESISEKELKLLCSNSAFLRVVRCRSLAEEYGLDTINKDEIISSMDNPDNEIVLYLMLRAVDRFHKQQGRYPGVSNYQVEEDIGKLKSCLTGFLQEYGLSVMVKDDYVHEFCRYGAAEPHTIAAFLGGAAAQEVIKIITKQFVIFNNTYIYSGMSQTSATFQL
T2 sequence (looked up) 2: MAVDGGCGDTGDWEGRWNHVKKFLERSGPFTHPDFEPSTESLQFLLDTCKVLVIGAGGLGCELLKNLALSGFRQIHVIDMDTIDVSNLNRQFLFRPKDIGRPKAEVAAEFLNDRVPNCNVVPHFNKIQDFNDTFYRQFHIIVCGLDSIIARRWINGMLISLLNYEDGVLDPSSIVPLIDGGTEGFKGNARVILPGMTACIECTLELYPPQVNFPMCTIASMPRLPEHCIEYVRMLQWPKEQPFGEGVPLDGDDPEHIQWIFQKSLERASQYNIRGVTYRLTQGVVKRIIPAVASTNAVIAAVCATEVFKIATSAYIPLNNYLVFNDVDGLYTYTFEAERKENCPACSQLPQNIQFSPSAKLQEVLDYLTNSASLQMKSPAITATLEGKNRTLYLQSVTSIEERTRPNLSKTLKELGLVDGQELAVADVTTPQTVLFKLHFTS

T3: GST-APPBP1 (UniProt Q13564 1-534, limits assumed)
T3 construct: Fractions of a Superdex 200 run of GST-APPBP1/UBA3 that held only GST-APPBP1; also called APPBP1 subunit alone; E1 regulatory subunit APPBP1; not shown: GST tag
T3 sequence (looked up): T2 sequence (looked up) 1

T4: N-terminal GST-tagged GlyRS (human, UniProt P41250 55-739)
T4 construct: also called GST-GlyRS; immobilized GlyRS; not shown: N-terminal GST tag from a modified pET28a vector
T4 sequence: T1 sequence

B1: APPBP1 in HEK293 cells (endogenous) (enzyme, UniProt Q13564 2-534, looked up)
chain: AQLGKLLKEQKYDRQLRLWGDHGQEALESAHVCLINATATGTEILKNLVLPGIGSFTIIDGNQVSGEDAGNNFFLQRSSIGKNRAEAAMEFLQELNSDVSGSFVEESPENLLDNDPSFFCRFTVVVATQLPESTSLRLADVLWNSQIPLLICRTYGLVGYMRIIIKEHPVIESHPDNALEDLRLDKPFPELREHFQSYDLDHMEKKDHSHTPWIVIIAKYLAQWYSETNGRIPKTYKEKEDFRDLIRQGILKNENGAPEDEENFEEAIKNVNTALNTTQIPSSIEDIFNDDRCINITKQTPSFWILARALKEFVAKEGQGNLPVRGTIPDMIADSGKYIKLQNVYREKAKKDAAAVGNHVAKLLQSIGQAPESISEKELKLLCSNSAFLRVVRCRSLAEEYGLDTINKDEIISSMDNPDNEIVLYLMLRAVDRFHKQQGRYPGVSNYQVEEDIGKLKSCLTGFLQEYGLSVMVKDDYVHEFCRYGAAEPHTIAAFLGGAAAQEVIKIITKQFVIFNNTYIYSGMSQTSATFQL
B2: full-length human GlyRS (enzyme)
chain: T1 sequence
notes: A tag-free preparation is described (N-terminal His-SUMO tag removed by Ulp1); the His-tagged preparation may have been used in some of those; also called full-length GlyRS; tag-free full-length GlyRS
B3: His-tagged full-length human GlyRS (glycyl-tRNA synthetase) (enzyme)
chain: T1 sequence
notes: also called His-tagged GlyRS; purified human GlyRS protein; not shown: His tag
B4: ABD (V541-E685) of GlyRS (enzyme)
chain: VREGDEQRTFFSFPAVVAPFKCSVLPLSQNQEFMPFVKELSEALTRHGVSHKVDDSSGSIGRRYARTDEIGVAFGVTIDFDTVNKTPHTATLRDRDSMRQIRAEISELPSIVQDLANGNITWADVEARYPLFEGQETGKKETIEE
notes: Cloned, expressed and purified in a similar way as the full-length GlyRS; also called ABD GlyRS; ABD domain alone
B5: His-tagged human TrpRS (tryptophanyl-tRNA synthetase) (enzyme, UniProt P23381 1-471, looked up)
chain: MPNSEPASLLELFNSIATQGELVRSLKAGNASKDEIDSAVKMLVSLKMSYKAAAGEDYKADCPPGNPAPTSNHGPDATEAEEDFVDPWTVQTSSAKGIDYDKLIVRFGSSKIDKELINRIERATGQRPHHFLRRGIFFSHRDMNQVLDAYENKKPFYLYTGRGPSSEAMHVGHLIPFIFTKWLQDVFNVPLVIQMTDDEKYLWKDLTLDQAYSYAVENAKDIIACGFDINKTFIFSDLDYMGMSSGFYKNVVKIQKHVTFNQVKGIFGFTDSDCIGKISFPAIQAAPSFSNSFPQIFRDRTDIQCLIPCAIDQDPYFRMTRDVAPRIGYPKPALLHSTFFPALQGAQTKMSASDPNSSIFLTDTAKQIKTKVNKHAFSGGRDTIEEHRQFGGNCDVDVSFMYLTFFLEDDDKLEQIRKDYTSGAMLTGELKKALIEVLQPLIAEHQARRKEVTDEIVKEFMTPRKLSFDFQ
notes: not shown: His tag
B6: GST-Ubc12 (enzyme)
chain: MIKLFSLKQQKKEEESAGGTKGSSKKASAAQLRIQKDINELNLPKTCDISFSDPDDLLNFKLVICPDEGFYKSGKFVFSFKVGQGYPHDPPKVKCETMVYHPNIDLEGNVCLNILREDWKPVLTINSIIYGLQYLFLEPNPEDPLNKEAAEVLQNNRRLFEQNVQRSMRGGYIGSTYFERCLK
modifications: N-terminal GST fusion, not carried in the letters
notes: Bait on glutathione beads in the GST pull-down; Band between 42 and 57 kDa in the input blot; also called GST-tagged Ubc12; not shown: GST tag and the linker to Ubc12
B7: Ubc12 (enzyme, UniProt P61081 1-183, looked up)
chain: B6 chain
notes: GST-tagged or untagged preparations are mentioned; also called Ubc12 alone; apo Ubc12
B8: ΔWHEP GlyRS (enzyme)
chain: IVDRAKMEDTLKRRFFYDQAFAIYGGVSGLYDFGPVGCALKNNIIQTWRQHFIQEEQILEIDCTMLTPEPVLKTSGHVDKFADFMVKDVKNGECFRADHLLKAHLQKLMSDKKCSVEKKSEMESVLAQLDNYGQQELADLFVNYNVKSPITGNDLSPPVSFNLMFKTFIGPGGNMPGYLRPETAQGIFLNFKRLLEFNQGKLPFAAAQIGNSFRNEISPRSGLIRVREFTMAEIEHFVDPSEKDHPKFQNVADLHLYLYSAKAQVSGQSARKMRLGDAVEQGVINNTVLGYFIGRIYLYLTKVGISPDKLRFRQHMENEMAHYACDCWDAESKTSYGWIEIVGCADRSCYDLSCHARATKVPLVAEKPLKEPKTVNVVQFEPSKGAIGKAYKKDAKLVMEYLAICDECYITEMEMLLNEKGEFTIETEGKTFQLTKDMINVKRFQKTLYVEEVVPNVIEPSFGLGRIMYTVFEHTFHVREGDEQRTFFSFPAVVAPFKCSVLPLSQNQEFMPFVKELSEALTRHGVSHKVDDSSGSIGRRYARTDEIGVAFGVTIDFDTVNKTPHTATLRDRDSMRQIRAEISELPSIVQDLANGNITWADVEARYPLFEGQETGKKETIEE
notes: also called AWHEP GlyRS; core synthetase; not shown: His tag

How the values were obtained:
[1] = target: T1, GlyRS in HEK293 cells (endogenous); experiment: co-immunoprecipitation, HEK293 cells
[2] = target: T2, E1 for neddylation, APPBP1/UBA3 …; experiment: biolayer interferometry, E1 (APPBP1/UBA3) immobilized, analyte 62.5-500 nM
ubiquitin = target: T5, ubiquitin (UniProt P0CG48 1-76); experiment: His-tag pull-down
T5 construct: Bought protein

GST-APPBP1 = target: T3, GST-APPBP1; experiment: biolayer interferometry, APPBP1 immobilized, ABD GlyRS 0.58-4.6 µM
ABD (V541-E685) of GlyRS = target: B4; experiment: GST pull-down on glutathione beads, blot anti-GlyRS
[3] = target: T4, N-terminal GST-tagged GlyRS; experiment: biolayer interferometry (Octet), GlyRS immobilized, 30°C

Binder: B1
binding result [1]: binds

Binder: B2
Kd [2]: 159 nM

Binder: B3
binding result (ubiquitin): no binding

Binder: B4
Kd (GST-APPBP1): 144 nM
Kd [2]: 187 nM

Binder: B5
binding result (ubiquitin): no binding

Binder: B6
binding result (ABD (V541-E685) of GlyRS): no binding

Binder: B7
Kd [3]: 488 nM

Binder: B8
Kd [2]: 177 nM
